Assay: soluble on expression in E. coli; label from the status in PepcDB or PDB records
In the case of “MSVIIISRNQEKLDRAAKKIELNTGGKVKVIAADFTKDDIYGHITENIEGLDIGVLVNNVGILPSQIPCKLLETSDLEERIYDIVNCNVKSMVKMCRIVLPGMQQRRRGVILNVSSGIAKIPCPIYTLYAASKVFVERFSQGLQAEYISKGIIIQTVAPFGVSTAMTGHQKPDMVTFTAEEFVRSSLKYLKTGDQTYGSITHTLLGRIVQSIPTWVLQSETFQHHFQEYVKNRDRR”, the “soluble on expression in E. coli” value is reported as “not soluble”.
With “MVAISDLRGLSLPEALGGIVEAIENVEVGEQVQFVLDSDADVEAITTHLSEYAECSAEKGDRFILLKVTKRAEFKADEEEEFRIDENTNVGRLIERYPEATEILASYGFTPLRNPVLRKTLAKTITLGRAKMLKKLSDEEFEEMLRKLRELRG” the “soluble on expression in E. coli” value was “not soluble”.
In the case of “MGSDKIHHHHHHMIAHPCYVDKFSQQVHFHAIDFARSRWNIFLLWQLKNLIQQIQPAIVHAQAGKAAELIARIKPFLSGPKFITTVHGTKKNKSAYLAGDAVIAVSQALTQGIPESKAHVVYNGVYPQPVLTTENKEKLLQSIQKDFTELDTSKRVVMCIGRLEPVKNISLLIESMQQIDANLWIVGDGSLRASLEKQVSELNMQNRVAFLGFRTDARDLVQLADIVVLSSDREGFPLVMVEALQADKAMASTKVNGVIEWLPEQYLAEIGDTQGLAKAIEYALQPEAQNDFGPLYAKAKAELTVPAMAEQTLNIYKGLLKT”, the “soluble on expression in E. coli” value is reported as “not soluble”.
For “MVSYKLTYFDGRGAGELCRQIFAAAEQKYEDNRLTDEEWEKFKAAGKTPYNQLPMLEVDGKPLAQSHAMARYLAREFGFNGKSRWEEAQVNSLADQYKDYYAEARPYLAVKLGYTEGDAEALYTSVYLPVFKKHYGFFVNALKASGSGFLVGNSLTFIDLLVAQHSADLLGREKSDLFNDVPEMKAHSEKVQSIPQIKKWIETRPASDW”, the “soluble on expression in E. coli” value was “not soluble”.
In the case of “GTGTRFGTDLAKEAKKVHQTTRTVPAKRGTIYDRNGVPIAEDATSYNVYAVIDENYKSATGKILYVEKTQFNKVAEVFHKYLDMEESYVREQLSQPNLKQVSFGAKGNGITYANMMSIKKELEAAEVKGIDFTTSPNRSYPNGQFASSFIGLAQLHENEDGSKSLLGTSGMESSLNSILAGTDGIITYEKDRLGNIVPGTEQVSQRTMDGKDVYTTISSPLQSFMETQMDAFQEKVKGKYMTATLVSAKTGEILATTQRPTFDADTKEGITEDFVWRDILYQSNYEPGSTMKVMMLAAAIDNNTFPGGEVFNSSELKIADATIRDWDVNEGLTGGRMMTFSQGFAHSSNVGMTLLEQKMGDATWLDYLNRFKFGVPTRFGLTDEYAGQLPADNIVNIAQSSFGQGISVTQTQMIRAFTAIANDGVMLEPKFISAIYDPNDQTARKSQKEIVGNPVSKDAASLTRTNMVLVGTDPVYGTMYNHSTGKPTVTVPGQNVALKSGTAQIADEKNGGYLVGLTDYIFSAVSMSPAENPDFILYVTVQQPEHYSGIQLGEFANPILERASAMKDSLNLQTTAKALEQVSQQSPYPMPSVKDISPGDLAEELRRNLVQPIVVGTGTKIKNSSAEEGKNLAPNQQVLILSDKAEEVPDMYGWTKETAETLAKWLNIELEFQGSGSTVQKQDVRANTAIKDIKKITLTLGD”, the “soluble on expression in E. coli” value is reported as “soluble”.
For “MGSDKIHHHHHHMSCIIPNIYSQPTDTNLWNILLSSGIPRHYQKGEFVFEKDQPSNGLICLKKGKVKVSSFFSEGSEKIFGILVAPALFGETETLDQGPRMVSATALTHVEIVAISGNKTKELIYTYPDIALSIIQSIGVKLRWTTLQAEDLSTQKIEYRLARLLLDFKHYGIFTSKNNDNCLMITHEELAHFIGTARSKVTTYLNEFAHKGLIRLRRGEIRILDTAGLNKYKYTHKSQA”, the “soluble on expression in E. coli” value was “not soluble”.
For “MTEITHRTKTRPVKVGNLTIGGNNEVVVQSMTTTKTHDVEATVAEIKRLEEAGCQVVRVACPDMRAAEAIPAIKKQISIPLVVDIHFDYKLALKAIEGGADKIRINPGNIGKRHKVEAVVKAAKEKGIPIRIGVNAGSLEKRILDKYGYPTADGMVESALHHIKILEDLDFHDIIVSMKASDVNLAIEAYEKAAKAFDYPLHLGITESGTLFAGTVKSAAGLGAILNMGIGNTVRVSLSADPVEEVKVARELLKSFGLASNAATLISCPTCGRIEIDLISIANEMEEYISKIRAPIKVAVLGCAVNGPGEAREADIGIAGARGEGLLFRKGEIVRKVPEETMVEELKKEIDKIAEEYFAKQKELEKALEHHHHHH”, the “soluble on expression in E. coli” value was “soluble”.
For “MSLNEPLPDRQTELPAVKKENHGEYLQPRDLSKIPNTAFGDQVKRGYSLFVNSQQMRGKYVGNEQNCVNCHMEAGRKANAAPLWAAYMAYPAYRKKNDRVNSYADRIQGCFEYSMNGKAPAYDSPEIVALSAYAYWLAMGGLLDEGHHHHHH”, the “soluble on expression in E. coli” value was “soluble”.
